pKd: −log10 of the molar value.
Experiments:
[1] = target: SNAP-25 peptide comprising amino acids 134-206 of SEQ ID NO: 5 (human); test: SPR, BIAcore 3000, peptide on CM5 chip, antibody as analyte, 1:1 model
[2] = target: SNAP-25 peptide comprising amino acids 134-197 of SEQ ID NO: 5 (human); test: as above

| pKd [1] | koff [1] [s⁻¹] | kon [1] [M⁻¹ s⁻¹] | pKd [2] | koff [2] [s⁻¹] | kon [2] [M⁻¹ s⁻¹] | Substance |
| --- | --- | --- | --- | --- | --- | --- |
| 4.70 | 0.00607 | 306 | 9.30 | 0.000882 | 1.78e+06 | mouse α-SNAP-25 monoclonal antibody MC-6050 (Research & Diagnostic Antibodies) |
| 6.62 | 2.56e-05 |  | 9.29 | 0.00118 | 2.32e+06 | mouse α-SNAP-25 monoclonal antibody MC-6053 (Research & Diagnostic Antibodies) |
